What all share (test): two-hybrid library CCNG1;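 note: natural log of median RNA to DNA barcode read ratio; higher means stronger binding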
The target in one assay is T1, 4H2667-bN.
T1 chain: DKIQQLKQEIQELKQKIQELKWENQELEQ

The target of another assay is T2, 4H2697-bN.
T2 chain: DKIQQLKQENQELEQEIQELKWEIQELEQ

The target of another assay is T3, 4H2729-bN.
T3 chain: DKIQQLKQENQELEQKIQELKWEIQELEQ

Another assay has as its target T4, 4H3112-bN.
T4 chain: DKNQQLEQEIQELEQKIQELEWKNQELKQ

The target of the next assay is T5, 4H3185-bN.
T5 chain: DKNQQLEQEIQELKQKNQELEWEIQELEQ

The target in a further assay is T6, 4H3189-bN.
T6 chain: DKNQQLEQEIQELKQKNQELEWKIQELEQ

For another assay, the target named is T7, 4H331-bN.
T7 chain: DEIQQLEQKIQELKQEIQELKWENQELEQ

In another assay the target is T8, 4H3354-bN.
T8 chain: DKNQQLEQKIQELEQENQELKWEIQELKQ

Another assay concerns the target T9, 4H338-bN.
T9 chain: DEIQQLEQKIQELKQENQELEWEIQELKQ

The target of a further assay is T10, 4H3427-bN.
T10 chain: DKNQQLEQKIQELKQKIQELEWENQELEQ

Another assay has as its target T11, 4H3606-bN.
T11 chain: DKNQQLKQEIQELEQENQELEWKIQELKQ

In the next assay the target is T12, 4H370-bN.
T12 chain: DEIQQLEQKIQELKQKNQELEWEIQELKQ

A further assay deals with T13, 4H3782-bN.
T13 chain: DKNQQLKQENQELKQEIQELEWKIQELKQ

A further assay concerns the target T14, 4H3843-bN.
T14 chain: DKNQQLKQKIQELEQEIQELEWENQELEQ

Another assay deals with T15, 4H3855-bN.
T15 chain: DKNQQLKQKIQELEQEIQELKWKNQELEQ

In a further assay the target is T16, 4H4001-bN.
T16 chain: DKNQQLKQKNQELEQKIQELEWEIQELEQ

Another assay addresses T17, 4H454-bN.
T17 chain: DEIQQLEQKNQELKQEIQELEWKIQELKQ

The target of the next assay is T18, 4H462-bN.
T18 chain: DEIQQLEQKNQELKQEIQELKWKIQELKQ

In the next assay the target is T19, 4H568-bN.
T19 chain: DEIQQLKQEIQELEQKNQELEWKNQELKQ

A further assay has as its target T20, 4H575-bA.
T20 chain: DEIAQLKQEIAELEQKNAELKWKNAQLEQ

A further assay deals with T21, 4H607-bN.
T21 chain: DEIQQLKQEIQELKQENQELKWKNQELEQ

For the next assay, the target named is T22, 4H687-bN.
T22 chain: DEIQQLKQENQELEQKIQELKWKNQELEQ

The target in the next assay is T23, 4H717-bN.
T23 chain: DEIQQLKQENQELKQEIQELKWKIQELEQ

For another assay, the target named is T24, 4H72-bN.
T24 chain: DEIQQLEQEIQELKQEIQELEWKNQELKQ

For another assay, the target named is T25, 4H754-bN.
T25 chain: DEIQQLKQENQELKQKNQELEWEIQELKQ

For another assay, the target named is T26, 4H797-bN.
T26 chain: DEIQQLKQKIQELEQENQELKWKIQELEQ

A further assay deals with T27, 4H883-bN.
T27 chain: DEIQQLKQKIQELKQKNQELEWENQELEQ

A further assay addresses T28, 4H908-bN.
T28 chain: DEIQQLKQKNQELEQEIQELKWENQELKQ

Another assay addresses T29, 4H918-bN.
T29 chain: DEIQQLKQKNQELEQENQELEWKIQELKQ

In a further assay the target is T30, 4H953-bN.
T30 chain: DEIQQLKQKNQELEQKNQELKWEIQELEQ

A further assay concerns the target T31, 4H967-bN.
T31 chain: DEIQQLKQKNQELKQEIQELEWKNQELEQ

The next assay has as its target T32, 4H797-bH.
T32 chain: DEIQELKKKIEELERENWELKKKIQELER

The target of another assay is T33, 4H855-bH.
T33 chain: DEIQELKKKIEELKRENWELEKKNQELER

In a further assay the target is T34, 4H883-bH.
T34 chain: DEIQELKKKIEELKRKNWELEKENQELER

The target in another assay is T35, 4H908-bH.
T35 chain: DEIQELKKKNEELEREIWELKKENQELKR

Another assay addresses T36, 4H918-bH.
T36 chain: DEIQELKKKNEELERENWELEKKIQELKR

The next assay concerns the target T37, 4H953-bH.
T37 chain: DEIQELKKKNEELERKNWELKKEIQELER

In a further assay the target is T38, 4H967-bH.
T38 chain: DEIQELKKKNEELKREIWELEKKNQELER

Another assay addresses T39, 4H968-bH.
T39 chain: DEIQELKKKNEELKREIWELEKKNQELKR

In another assay the target is T40, O16-bA.
T40 chain: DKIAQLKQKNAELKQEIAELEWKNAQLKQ

The target in the next assay is T41, O2-bA.
T41 chain: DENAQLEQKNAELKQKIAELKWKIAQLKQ

The target of another assay is T42, O3-bA.
T42 chain: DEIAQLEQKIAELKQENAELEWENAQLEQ

A further assay deals with T43, O4-bA.
T43 chain: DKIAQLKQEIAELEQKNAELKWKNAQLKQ

The target of the next assay is T44, O5-bA.
T44 chain: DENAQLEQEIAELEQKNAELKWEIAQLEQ

A further assay deals with T45, O6-bA.
T45 chain: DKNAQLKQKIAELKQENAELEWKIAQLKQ

For a further assay, the target named is T46, O7-bA.
T46 chain: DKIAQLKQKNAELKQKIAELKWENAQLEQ

The target of another assay is T47, O8-bA.
T47 chain: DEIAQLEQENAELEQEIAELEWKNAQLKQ

For the next assay, the target named is T48, O9-bA.
T48 chain: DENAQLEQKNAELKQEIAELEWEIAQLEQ

Another assay deals with T49, 4H3817-bN.
T49 chain: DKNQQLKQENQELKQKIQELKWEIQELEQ

Consider DKIQQLKQEIQELKQKIQELKWENQELEQ [4H2667-bN], for which the interaction score in the assay with 4H2667-bN is 0.858; in the assay with 4H2697-bN, -0.288; with 4H2729-bN, -0.251; with 4H3112-bN, 1.72; with 4H3185-bN, -0.735; in the assay with 4H3189-bN, -0.514. The interaction score was 2.18 in the assay with 4H331-bN; -1.12 with 4H3354-bN; 0.105 with 4H338-bN; 1.56 with 4H3427-bN; 0.163 with 4H3606-bN; -0.572 in the assay with 4H370-bN. Also, the interaction score with 4H3782-bN was -0.86; with 4H3843-bN, 1.5; with 4H3855-bN, -0.551; with 4H4001-bN it was 0.942; with 4H454-bN, 0.31; in the assay with 4H462-bN, -1.28. Moreover, the interaction score is -0.122 with 4H568-bN; -1.2 with 4H575-bA; -1.69 with 4H607-bN; -1.55 with 4H687-bN; -0.215 in the assay with 4H717-bN; 0.513 with 4H72-bN. Further, the interaction score with 4H754-bN was -0.798; in the assay with 4H797-bN, -1.02; with 4H883-bN it was -0.0532; with 4H908-bN, -0.467; with 4H918-bN, -1.12; with 4H953-bN, -0.794. For the same molecule, in the assay with 4H967-bN, the interaction score was -0.671.

As for DEIQELKKKIEELERENWELKKKIQELER [4H797-bH], the interaction score with 4H797-bH was -0.311; in the assay with 4H855-bH, -1.17; in the assay with 4H883-bH it was 0.639; with 4H908-bH, -0.915; with 4H918-bH, 0.24; in the assay with 4H953-bH, -0.0525. Also, the interaction score with 4H967-bH was 0.229; with 4H968-bH it was -0.0614; in the assay with O16-bA, -0.174.

For DKIAQLKQKNAELKQEIAELEWKNAQLKQ [O16-bA], the interaction score was -0.811 in the assay with O16-bA; -0.141 with O2-bA; -0.599 with O3-bA; -0.54 with O4-bA; -1.16 in the assay with O5-bA; 1.4 in the assay with O6-bA. The interaction score is 1.33 with O7-bA, 1.35 with O8-bA and -1.22 with O9-bA.

Consider DKIQQLKQENQELEQKIQELKWEIQELEQ [4H2729-bN], for which the interaction score is -1.82 with 4H2729-bN; -0.365 in the assay with 4H3112-bN; -0.905 with 4H3185-bN; -1.39 in the assay with 4H331-bN; -0.621 in the assay with 4H3354-bN; -1.12 with 4H338-bN. The interaction score was -1.07 with 4H3427-bN; -0.911 with 4H3782-bN; -0.912 in the assay with 4H3817-bN; -0.181 with 4H3855-bN; -1.4 with 4H4001-bN; 1.43 in the assay with 4H454-bN. Moreover, the interaction score with 4H568-bN was -1.47; with 4H607-bN, -1.28; in the assay with 4H687-bN it was -0.901; in the assay with 4H717-bN, -1.59; in the assay with 4H72-bN it was -1.09; in the assay with 4H754-bN it was -0.565. Besides, the interaction score is -1.01 in the assay with 4H797-bN; -2.01 with 4H883-bN; -1.64 with 4H908-bN; -0.584 with 4H918-bN; -0.965 in the assay with 4H953-bN; -0.995 in the assay with 4H967-bN.

The record behind these values is publication PMC10397247.
